Data taken from PMC11097922.

Biological target: 220 kDa ankyrin-B-GFP
Test: proximity ligation

Substance: NaV1.2 II-III loop-3xHA (wild type) (from UniProt Q99250 991-1211) (domain or fragment)
- PLA signal: 11.6 a.u.
